Test results taken from patent US11981943B2, “Methods and composition for detecting CAPN5” (UNIVERSITY OF IOWA RESEARCH FOUNDATION, priority 2016, dated 2024).
“Also recorded” adds a separate entry of the source. Values belong to the compound of their own block, whether it stands above or below them.

Legend:
Type in all cases: biochemical
CAPN5 WT [1] = target: T1, CAPN5 WT (Homo sapiens, UniProt O15484); test: Inhibition of CAPN5 WT proteolysis of CAPN5p.370-80 substrate; settings: for effect of increasing substrate concentration on inhibition of CAPN5: increasing concentrations of CAPN5 p.370-80 substrate, with and without inhibitor
T1 sequence (O15484 whole entry): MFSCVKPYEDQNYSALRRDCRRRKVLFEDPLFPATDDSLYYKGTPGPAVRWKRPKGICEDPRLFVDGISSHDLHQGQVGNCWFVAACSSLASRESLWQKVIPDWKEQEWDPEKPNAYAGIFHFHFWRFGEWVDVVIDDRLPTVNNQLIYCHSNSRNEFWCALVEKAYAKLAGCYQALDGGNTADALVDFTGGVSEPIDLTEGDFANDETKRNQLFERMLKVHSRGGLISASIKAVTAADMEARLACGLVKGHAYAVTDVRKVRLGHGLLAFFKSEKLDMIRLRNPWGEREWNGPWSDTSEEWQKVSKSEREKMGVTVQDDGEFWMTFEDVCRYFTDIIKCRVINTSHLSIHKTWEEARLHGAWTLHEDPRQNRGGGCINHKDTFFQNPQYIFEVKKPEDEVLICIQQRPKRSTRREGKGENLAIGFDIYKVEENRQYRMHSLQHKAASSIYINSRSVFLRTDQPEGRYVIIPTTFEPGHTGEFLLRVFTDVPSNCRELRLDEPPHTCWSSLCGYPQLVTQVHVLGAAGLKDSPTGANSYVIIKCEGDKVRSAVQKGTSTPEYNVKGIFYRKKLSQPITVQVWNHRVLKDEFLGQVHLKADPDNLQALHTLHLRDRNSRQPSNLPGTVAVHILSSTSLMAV
Procedure: (§1) FIG. 15A: Various concentrations of SNJ-1945 were incubated in a reaction with 50 μM EPLFAERK (SEQ ID NO: 22) (a CAPN1 substrate) and CAPN1 WT in activity. Data is plotted for CAPN1 as initial velocity (μM/sec) versus SNJ-1945 concentration. Addition of 1 μM SNJ-1945 slows the initial reaction rate by 100%. FIG. 15B: CAPN1 WT was incubated with and without SNJ-1945 at increasing concentrations of EPLFAERK substrate (SEQ ID NO: 22). Data is plotted for CAPN1 as initial velocity (μM/sec) versus substrate concentration. FIG. 15C: Various concentrations of SNJ-1945 were incubated in a reaction with CAPN5p.370-80 and CAPN5 WT in an activity buffer. Data is plotted for CAPN5 as initial velocity (μM/sec) versus SNJ-1945 concentration. Only after addition of 100 μM SNJ-1945 did the initial reaction rate slow to 100%. FIG. 15D: CAPN5 WT was incubated with and without SNJ-1945 at increasing concentrations of CAPN5 p.370-80 substrate. Data is plotted for CAPN5 as initial velocity (μM/sec) versus substrate concentration.
FIGS. 16A-16B. […] First generation lead compound CAPN5 p.370-80 was modified using amide cyclization to generate a second generation competitive cyclic inhibitor. (FIG. 16A) Various concentrations of Cyclic CAPN5 p.370-80 were incubated in a reaction with CAPN5p.370-80 and CAPN5 WT in an activity buffer. Data is plotted for CAPN5 as initial velocity (μM/sec) versus Cyclic CAPN5 p.370-80 concentration. Addition of 10 μM Cyclic CAPN5 p.370-80 slows the initial reaction rate by 40%. (FIG. 16B) CAPN5 WT was incubated with and without 10 μM Cyclic CAPN5 p.370-80 at increasing concentrations of CAPN5 p.370-80 substrate. Data is plotted for CAPN5 as initial velocity (μM/sec) versus substrate concentration.
Various concentrations of SNJ-1945 were incubated in a reaction with 50 μM EPLFAERK (a CAPN1 substrate) (SEQ ID NO: 22) and CAPN1 WT in activity. Addition of 1 μM SNJ-1945 slows the initial reaction rate by 100% (FIG. 15A). CAPN1 WT was incubated with and without SNJ-1945 at increasing concentrations of EPLFAERK substrate (SEQ ID NO: 22) (FIG. 15B). Various concentrations of SNJ-1945 were incubated in a reaction with CAPN5p.370-80 and CAPN5 WT in an activity buffer. Only after addition of 100 μM SNJ-1945 did the initial reaction rate slow to 100% (FIG. 15C). CAPN5 WT was incubated with and without SNJ-1945 at increasing concentrations of CAPN5 p.370-80 substrate (FIG. 15D).
First generation lead compound CAPN5 p.370-80 was modified using amide cyclization to generate a second generation competitive cyclic inhibitor. Various concentrations of Cyclic CAPN5 p.370-80 were incubated in a reaction with CAPN5p.370-80 and CAPN5 WT in an activity buffer. Addition of 10 μM Cyclic CAPN5 p.370-80 slows the initial reaction rate by 40% (FIG. 16A). CAPN5 WT was incubated with and without 10 μM Cyclic CAPN5 p.370-80 at increasing concentrations of CAPN5 p.370-80 substrate.

CAPN1 WT [2] = target: T2, CAPN1 WT (Homo sapiens, UniProt P07384); test: Inhibition of CAPN1 WT proteolysis of EPLFAERK substrate
T2 sequence (P07384 1-714): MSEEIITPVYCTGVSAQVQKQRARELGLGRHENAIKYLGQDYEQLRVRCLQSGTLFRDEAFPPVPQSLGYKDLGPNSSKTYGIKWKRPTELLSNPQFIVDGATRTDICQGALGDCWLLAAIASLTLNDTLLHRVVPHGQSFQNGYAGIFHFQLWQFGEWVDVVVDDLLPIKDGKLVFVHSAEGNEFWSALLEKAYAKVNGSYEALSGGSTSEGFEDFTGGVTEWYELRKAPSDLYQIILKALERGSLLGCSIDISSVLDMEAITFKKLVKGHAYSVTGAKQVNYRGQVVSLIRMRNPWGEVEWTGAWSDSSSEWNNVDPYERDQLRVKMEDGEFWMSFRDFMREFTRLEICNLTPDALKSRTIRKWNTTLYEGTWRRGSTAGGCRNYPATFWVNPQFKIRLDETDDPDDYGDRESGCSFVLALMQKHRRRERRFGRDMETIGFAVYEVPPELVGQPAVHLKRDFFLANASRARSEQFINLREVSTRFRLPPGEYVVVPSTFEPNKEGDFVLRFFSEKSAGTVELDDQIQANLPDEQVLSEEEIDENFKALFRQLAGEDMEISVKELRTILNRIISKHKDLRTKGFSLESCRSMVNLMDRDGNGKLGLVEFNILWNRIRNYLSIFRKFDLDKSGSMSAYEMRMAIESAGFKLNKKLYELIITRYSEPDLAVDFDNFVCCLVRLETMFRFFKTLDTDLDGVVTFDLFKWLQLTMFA
Procedure: as §1
Various concentrations of SNJ-1945 were incubated in a reaction with 50 μM EPLFAERK (a CAPN1 substrate) (SEQ ID NO: 22) and CAPN1 WT in activity. Addition of 1 μM SNJ-1945 slows the initial reaction rate by 100% (FIG. 15A). CAPN1 WT was incubated with and without SNJ-1945 at increasing concentrations of EPLFAERK substrate (SEQ ID NO: 22) (FIG. 15B). […]

CAPN5 WT [3] = target: T1, CAPN5 WT; test: FRET peptide proteolysis assay with CAPN5-WT; design: MBP (N); settings: for proteolysis of peptide substrate by CAPN5-WT (fluorescence): FRET peptide, calpain activity buffer, 37° C.
Procedure: (§2) FIG. 2. Diagram of Assay. 10 uM of FRET substrates were added to a solution containing 2 mM DTT, 5 uM Calcium, and CAPN5 Buffer (20 mM Tris, 300 mM NaCl, pH 7.5) to a volume of 100 uL. The solution was pipetted into a 96 well plate in wells that contained 24 uM of CAPN5-WT, CAPN5-R243L, or no CAPN5. The fluorescence of each well was measured using a Tecan Infinite M200 Pro plate reader.
(§3) Peptide substrates dissolved in DMSO and H2O were incubated with WT CAPN5 at 37° C. in the presence or absence of calcium until a change in fluorescence was no longer detected. […] As expected, R243LCAPN5 (hyperactive) cleaved substrate fragments at a higher rate (FIG. 4). Inhibitor peptides were identified that serve as the lead compounds for optimization.
Proteolytic kinetics of CAPN5 is influenced by peptide length near its autoproteolytic site. Peptides substrates that were 7, 11, and 21 amino acids long were incubated in calpain activity buffer. The solution was brought to 37° C. CAPN5 was then added and fluorescence was measured. […] The kinetics data from the Michaelis-Menten and substrate inhibition equations are shown in a table (FIG. 12D).
(§4) Peptides were incubated in calpain activity buffer, and the solution was brought to 37° C. Calpain was added and fluorescence was measured. The fluorescence measured for the lead peptide, CAPN5p370-380, was plotted and lines were fit using the following substrate inhibition equation, Y=Vmax*X/(Km+X*(1+X/Ki)). […] The fluorescence measure for a previously published calpain-1 peptide, EPLFAERK (SEQ ID NO: 22), was plotted and lines were fit using the following Michaelis-Menten equation, Y=Vmax*X/(Km+X) (FIG. 13B). […] Kinetics data from the Michaelis-Menten and substrate inhibition equations are shown in a table (FIG. 13C).
Scanning modifications were made to the amino acids of the lead compound to make the bonds un-cleavable by CAPN5 (FIG. 18B). Despite modifications, the peptide still fit in the catalytic groove using docking predictions. N-terminal (EDANS) and C-terminal GLU-(DABCYL) FRET tags were added to the peptides for our standard CAPN5 assay and were dissolved in 70% DMSO (FIG. 18C). Peptides incubated for 15 minutes at various concentrations with 5 μg of MBP-CAPN5 WT. Modification of the amino acids slows the reaction rate. Data is plotted as initial velocity (uM/sec) versus peptide concentration fit to the substrate inhibition equation (FIG. 18D).
The CAPN5-370-80 peptide was modified (FIGS. 19A-19G) and the activity was evaluated (FIGS. 20A-20D). Scanning modifications were made to the amino acids of the peptide to make the bonds un-cleavable by CAPN5. The location of the modifications are denoted with circles N-terminal (EDANS) and C-terminal GLU-(DABCYL) FRET tags were added to the peptides for the standard CAPN5 assay and were dissolved in 70% DMSO. Peptides incubated for 15 minutes at various concentrations with 5 μg of MBP-CAPN5 WT in a buffer containing 20 mM Tris, 300 mM NaCl, 2 mM DTT, pH 7.5 to measure activity (FIG. 20C). Data is plotted as initial velocity (uM/sec) versus peptide concentration. Modification of the amino acids slows the reaction rate.

CAPN1 WT [4] = target: T2, CAPN1 WT; test: FRET peptide proteolysis assay with CAPN1; settings: calpain activity buffer, 37° C.
Procedure: as §4
CAPN5 specifically targets a peptide corresponding to its own autocatalytic site and not homologous regions in other calpains. […] Peptides corresponding to the homologous regions of the CAPN5 autoprotolysis site in other calpain family members were incubated with CAPN5 protease. […] Peptides tested in FIG. 14B were incubated with CAPN1. […] Kinetics data from the Michaelis-Menten and substrate inhibitions equations are shown in a table (FIG. 14D).

CAPN5-R243L = CAPN5-R243L (Homo sapiens, UniProt O15484, R243L); test: FRET peptide proteolysis assay with CAPN5-R243L; settings: hyperactive R243L mutant
CAPN5-R243L, sequence (O15484 whole entry R243L): as the sequence (O15484 whole entry) above, with R243L counted along it
Procedure: as §2, §3

Compound: COCCOCCOC(=O)N[C@@H](CC(C)C)C(=O)N[C@@H](Cc1ccccc1)C(=O)C(=O)NC1CC1 [SNJ-1945]
inhibition of CAPN5 (in words) (CAPN5 WT [1]): not a good inhibitor of CAPN5
slowing of initial reaction rate of CAPN5 (CAPN5 WT [1]; 100 μM SNJ-1945, CAPN5p.370-80 substrate): 100%
effect of increasing substrate concentration on inhibition of CAPN5 (CAPN5 WT [1]): overcomes the inhibition
inhibition of CAPN1 (in words) (CAPN1 WT [2]): inhibits CAPN1
slowing of initial reaction rate of CAPN1 (CAPN1 WT [2]; 1 μM SNJ-1945, 50 μM EPLFAERK substrate): 100%

Compound: EPLFAERK [reference compound]
proteolysis of peptide substrate by CAPN1 (fluorescence) (CAPN1 WT [4]): specific to CAPN1; also recorded: high proteolysis
proteolysis of peptide substrate by CAPN5-WT (fluorescence) (CAPN5 WT [3]): not proteolyzed by CAPN5; also recorded: very limited proteolysis

Compound: RQNRGGGCINH (listed as Homo sapiens) [CAPN5-370-380]
proteolysis of peptide substrate by CAPN1 (fluorescence) (CAPN1 WT [4]; listed as CAPN5 (370-380)): not proteolyzed by CAPN1
proteolysis of peptide substrate by CAPN1 (fluorescence) (CAPN1 WT [4]; listed as CAPN5p370-380): very limited proteolysis
proteolysis of peptide substrate by CAPN5-WT (fluorescence) (CAPN5 WT [3]): most sensitive to cleavage
proteolysis of peptide substrate by CAPN5-WT (fluorescence) (CAPN5 WT [3]; listed as 11 aa peptide): rapid and high cleavage
proteolysis of peptide substrate by CAPN5-WT (fluorescence) (CAPN5 WT [3]; listed as CAPN5 (370-380)): specific to CAPN5
proteolysis of peptide substrate by CAPN5-WT (fluorescence) (CAPN5 WT [3]; listed as CAPN5 (p370-380)): greatest fluorescent intensity
proteolysis of peptide substrate by CAPN5-WT (fluorescence) (CAPN5 WT [3]; listed as CAPN5p370-380): high proteolysis
proteolysis of peptide substrate by CAPN5-R243L (fluorescence) (CAPN5-R243L): most sensitive to cleavage
proteolysis of peptide substrate by CAPN5-R243L (fluorescence) (CAPN5-R243L; listed as CAPN5 (370-380)): greatest fluorescent intensity

Second part, led by results:

proteolysis of peptide substrate by CAPN5-WT (fluorescence) (CAPN5 WT [3]): mild cleavage
Compound: CAPN5p.372-378: 7 amino acid peptide substrate near the CAPN5 autoproteolytic site (NRGGGCI)

proteolysis of peptide substrate by CAPN5-WT (fluorescence) (CAPN5 WT [3]): some proteolysis
Compound: CAPN14 peptide: peptide of the CAPN14 region homologous to the CAPN5 autoproteolysis site (RGFNSGGSQPNAETFWTNPQFR; listed as Homo sapiens)

slowing of initial reaction rate of CAPN5 (CAPN5 WT [1]; 10 μM Cyclic CAPN5 p.370-80, CAPN5p.370-80 substrate): 40%
effect of increasing substrate concentration on inhibition of CAPN5 (CAPN5 WT [1]): does not overcome inhibition
Compound: Cyclic CAPN5 p.370-80: CAPN5 p.370-80 modified by amide cyclization, second generation competitive cyclic inhibitor

proteolysis of peptide substrate by CAPN5-R243L (fluorescence) (CAPN5-R243L): greatest fluorescent intensity
Compound: KIEIVRKKPIFKKATV [PDGFB (155-170)]

proteolysis of peptide substrate by CAPN5-WT (fluorescence) (CAPN5 WT [3]): cleaved slower
proteolysis of peptide substrate by CAPN5-R243L (fluorescence) (CAPN5-R243L): greatest fluorescent intensity
Compound: RQNRGGGCINHKDTFFQNPQY (listed as Homo sapiens) [CAPN5-370-390]
substrate inhibition of CAPN5 cleavage (CAPN5 WT [3]; peptide length series near autoproteolytic site): does not show cleavage substrate inhibition
